{"source": "patent US20220228157A1", "about": "“GENE EDITING IN DIVERSE BACTERIA” (priority 2019, published 2022)", "molecules": {"B1": {"name": "PapRecT: SSAP from Pseudomonas aeruginosa, SEQ ID NO: 24, UniParc ID: UPI0001E9E6CB (protein, listed as Pseudomonas aeruginosa)", "chain": "MGTALTPLLTKFATRYEMGTTPEEVANTLKQTCFKGQVNDSQMVALLIVADQYKLNPFTKELYAFPDKNNGIVPVVGVDGWARIINENPQFDGMEFSMDQQGTECTCKIYRKDRSHAISATEYMAECKRNTQPWQSHPRRMLRHKAMIQCARLAFGFAGIYDQDEAERIVERDVTPAEQYEDVSEAICLIKDSPTMEDLQAAFSNAWKAYKTKGARDQLTAAKDQRKKELLDAPIDVEFEETGDDRAA"}, "B2": {"name": "Redβ: Redβ SSAP from Enterobacteria phage λ, SEQ ID NO: 474 (protein)", "chain": "MSTALATLAGKLAERVGMDSVDPQELITTLRQTAFKCDASDAQFIALLIVANQYGLNPWTKEIYAFPDKQNGIVPVVGVDGWSRIINENQQFDGMDFEQDNESCTCRIYRKDRNHPICVTEWMDECRREPFKTREGREITGPWQSHPKRMLRHKAMIQCARLAFGFAGIYDKDEAERIVENTAYTAERQPERDITPVNDETMQEINTLLIALDKTWDDDLLPLCSQIFRRDIRASSELTQAEAVKALGFLKQKATEQKVAA", "modifications": "Bacteriophage Lambda"}, "B3": {"name": "CspRecT: RecT SSAP (UniParc ID: UPI0001837D7F) from a phage of Collinsella stercoris (protein)", "chain": "MNQIVKFTDDSGLAVQVTPDDVRRYICENATEKEVGLFLQLCQTQRLNPFVKDAYLVKYGGAPASMITSYQVFNRRACRDANYDGIKSGVVVLRDGDVVHKRGAACYKKAGEELIGGWAEVRFKDGRETAYAEVALDDYSTGKSNWAKMPGVMIEKCAKAAAWRLAFPDTFQGMYAAEEMDQAQQPEQVRAQAEQPVDLQPIRELFKPYCEHFGITPAEGMTAVCGAVGAEGMHSMTEQQARRARAWMEEEMAAPAVEAEYEVVDEGEVF", "modifications": "Collinsella stercoris DSM 13279"}}, "key": {"[1]": {"system": "M. smegmatis", "assay": "Allelic recombination frequency, selective vs non-selective plates", "type": "cell-based, Mycobacterium smegmatis", "method": "A single colony of M. smegmatis was grown overnight to saturation. The next day 25 μL of dense culture was inoculated into 5 mL of fresh media in the evening and grown overnight to an OD600 of 0.9. Cells were pelleted at 4° C. by centrifugation at 3,500×g for 10 minutes and washed twice with 10 mL ice-cold 10% glycerol. Cells were resuspended in 360 μL ice-cold 10% glycerol and transferred along with 10 μL of DNA to a pre-chilled 0.2 cm electroporation cuvette.\nElectrocompetent cells were electroporated with 90-mer oligos at: 1 uM for E. coli, 50 μg for L. lactis, and 10 uM for C. crescentus. 70-mer oligos were used at 1 μg for M. smegmatis. All oligos were obtained from IDT and can be found under “Oligonucleotides for genome editing” in materials and methods. For dsDNA experiments L. lactis was electroporated with 1.5 μg purified linear dsDNA. Cells were electroporated using a Bio-Rad gene pulser set to 25 μF, 200 S2, and 1.8 kV for E. coli, 2.0 kV for L. lactis, and 1.5 kV for C. crescentus and to 1000Ω and 2.5 kV for M. smegmatis. […] Colonies were counted using a custom script in Fiji, and allelic recombination frequency was calculated by dividing the number of colonies on selective plates, with the number of colonies on non-selective plates."}, "[2]": {"system": "E. coli", "assay": "Fifteen cycles of MAGE with pool of 15 oligos, editing efficiency by NGS", "type": "cell-based, Escherichia coli", "details": "15 separate mutations, one week", "method": "E. coli populations expressing either an efficient SSAP (SEQ ID NO: 157), an efficient SSAP/SSB pair (SEQ ID NO: 157/SEQ ID NO: 384), or the widely-used Redβ were taken through fifteen cycles of MAGE and transformed each cycle with a 10 μM pool comprising 15 unique oligos. Editing efficiency at each targeted locus was measured by NGS and averaged (FIG. 3)."}, "[3]": {"system": "E. coli MG1655", "assay": "DIvERGE mutagenesis of gyrA, gyrB, parC, parE with ciprofloxacin selection", "type": "cell-based, Escherichia coli", "details": "one round of DIvERGE"}, "[4]": {"system": "Citrobacter freundii ATCC 8090", "assay": "Recombineering efficiency by LacZ screening", "type": "cell-based", "details": "pORTMAGE-based constructs", "source_text": "(§1) To test the activity of PapRecT and CspRecT in these three organisms, the broad-host-range pORTMAGE system (Nyerges et al., Proc. Natl. Acad. Sci. U.S.A. 113, 2502-2507 (2016)) was built on as described above. For experiments in E. coli PapRecT or CspRecT was subcloned in place of Redβ into pORTMAGE311B (Szili et al., Antimicrob. Agents Chemother. AAC.00207-19 (2019) doi:10.1128/AAC.00207-19) (FIGS. 10A-10B; Addgene accession: #120418), which transiently disrupts MMR with EcMutL_E32K, and whose RSF1010 origin of replication and m-toluic-acid-based expression system allows the plasmid to be deployed over a broad range of bacterial hosts (Honda et al., Proc. Natl. Acad. Sci. U.S.A. 88, 179-183 (1991); Gawin et al., Microb. Biotechnol. 10, 702 (2017)). These same pORTMAGE-based constructs were used for testing in C. freundii and K. pneumoniae. […]\n(§2) Oligos were designed to introduce I) premature STOP codons into lacZ for E. coli, K. pneumoniae, and C. freundii, or II) RpsL K43→R; GyrA T83→I; ParC S83→L; RpoB D521→V, or a premature STOP codon into nfxB for P. aeruginosa. […] After recovery overnight, cells were plated at empirically-determined dilutions to a density of 200-500 colonies per plate. […] In all cases, allelic-replacement frequencies were calculated by dividing the number of recombinant CFUs by the number of total CFUs. […]"}, "[5]": {"system": "Klebsiella pneumoniae ATCC 10031", "assay": "Recombineering efficiency by LacZ screening", "type": "cell-based", "details": "pORTMAGE-based constructs", "source_text": "as §1, §2"}}}
{"molecule": "B1", "values": [{"measurement": "Editing efficiency", "setting": "[1]", "value": "enabled high efficiency editing"}]}
{"molecule": "B2", "values": [{"measurement": "Editing efficiency, averaged over targeted loci", "setting": "[2]", "value": "~20", "unit": "%"}]}
{"molecule": "B3", "values": [{"measurement": "Colonies relative to Redβ and PapRecT", "setting": "[3]; 250 ng/mL CIP, 130 oligos", "value": "more than ten times as many colonies"}, {"measurement": "Resistant variants produced", "setting": "[3]; 1,000 ng/mL CIP", "value": "only the use of CspRecT produced resistant variants"}, {"measurement": "Editing performance in C. freundii", "setting": "[4]", "value": "optimal choice of protein"}, {"measurement": "Editing performance in K. pneumoniae", "setting": "[5]", "value": "optimal choice of protein"}]}
